Test results taken from patent publication US20230416363A1.

Molecular target: mouse PD-1 expressed on cells (mouse) (UniProt Q02242)
Assay: cell-based or functional assay

mouse PD-1 expressed on cells (mouse), sequence (Q02242 25-288): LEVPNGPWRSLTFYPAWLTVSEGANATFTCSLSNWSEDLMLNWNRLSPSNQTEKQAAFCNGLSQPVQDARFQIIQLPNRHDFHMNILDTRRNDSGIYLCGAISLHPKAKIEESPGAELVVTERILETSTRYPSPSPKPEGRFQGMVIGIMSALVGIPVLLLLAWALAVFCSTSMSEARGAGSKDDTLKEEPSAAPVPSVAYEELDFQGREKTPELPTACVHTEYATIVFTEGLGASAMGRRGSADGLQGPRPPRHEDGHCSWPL

IC 50, Promega assay: 5.59 µg/mL
B1: RMP1-14 (antibody, from another filing, V domains shown)
VH: EVQLQESGPGLVKPSQSLSLTCSVTGYSITSSYRWNWIRKFPGNRLEWMGYINSAGISNYNPSLKRRISITRDTSKNQFFLQVNSVTTEDAATYYCARSDNMGTTPFTYWGQGTLVTVSS
VL: DIVMTQGTLPNPVPSGESVSITCRSSKSLLYSDGKTYLNWYLQRPGQSPQLLIYWMSTRASGVSDRFSGSGSGTDFTLKISGVEAEDVGIYYCQQGLEFPTFGGGTKLELK
